Measurements reported in patent publication US20200256877A1, “Microbiota Sequence Variants Of Tumor-Related Antigenic Epitopes” (ENTEROME S.A., priority 2017, published 2020).

Tests used:
[1] = target: T1, HLA-A*0201 (Homo sapiens, UniProt P04439, D140Y/D185E/D98H/E176V/E277Q/G131W/G231S/I119V/I121R/I166T/I218V/L300P/L318F/N151K/N90K/P208A/P217A/Q86G/Q94H/R138H/R169H/T345S); test: In vitro affinity of peptides to HLA-A*0201 on T2 cell line (FACS, anti-HLA-A2 labeling); assay type: cell-based; settings: T2 cells; for Binding to HLA-A*0201 (in words): in vitro; for Mean fluorescence intensity: 16 hours
T1 construct: human tumoral cell T2 which expresses the HLA-A*0201 molecule; endogenous in cells; host or cells: T2 cells (human, TAP1/2 negative)
Text: A method for in vitro testing is well-known to the skilled person. For example, the skilled person may use the experimental protocol as validated for peptides presented by HLA-A*0201 in Tourdot et al., A general strategy to enhance immunogenicity of low-affinity HLA-A2.1-associated peptides: implication in the identification of cryptic tumor epitopes. Eur J Immunol. 2000 December; 30(12):3411-21. In this context, a reference peptide, such as HIV pol 589-597, may be additionally used in the test. This enables calculation of the in vitro affinity relative to the binding observed with the reference peptide, e.g. by the following equation:
Relative affinity=concentration of each peptide inducing 20% of expression of HLA-A*0201/concentration of the reference peptide inducing 20% of expression of HLA-A*0201
(where 100% is the level of HLA-A*0201 expression detected with the reference peptide, e.g. HIV pol 589-597, for example used at a 100 μM concentration).
The experimental protocol is similar to the one that was validated for peptides presented by the HLA-A*0201 (Tourdot et al., A general strategy to enhance immunogenicity of low-affinity HLA-A2.1-associated peptides: implication in the identification of cryptic tumor epitopes. Eur J Immunol. 2000 December; 30(12):3411-21). Affinity measurement of the peptides is achieved with the human tumoral cell T2 which expresses the HLA-A*0201 molecule, but which is TAP1/2 negative and incapable of presenting endogenous peptides.
(§1) T2 cells (2.10^5 cells per well) were incubated with decreasing concentrations of peptides from 100 μM to 0.1 μM in a AIMV medium supplemented with 100 ng/μl of human β2m at 37° C. for 16 hours. Cells were then washed two times and marked with the anti-HLA-A2 antibody coupled to PE (clone BB7.2, BD Pharmagen).
The analysis was performed by FACS (Guava Easy Cyte). For each peptide concentration, the geometric mean of the labeling associated with the peptide of interest was subtracted from background noise and reported as a percentage of the geometric mean of the […] labeling obtained for the reference peptide HIV pol 589-597 at a concentration of 100 μM. The relative affinity is then determined as follows:
relative affinity=concentration of each peptide inducing 20% of expression of HLA-A*0201/concentration of the reference peptide inducing 20% of expression of HLA-A*0201.
The experimental protocol, materials and methods correspond to those outlined in Example 4, with the only difference that the above mentioned antigenic peptides were used.
as §1, with “β2 m” for “β2m”

[2] = system: splenocytes (IFNγ secretion); test: ELISPOT-IFNγ on splenocytes of β/A2/DR3 mice vaccinated with FOXM1-B2 (Example 12); assay type: in vivo, mouse
Description: Briefly, 15 β/A2/DR3 mice were immunized with a specific vaccination peptide (vacc-pAg) combined to a common helper peptide (h-pAg) (as outlined in Table 14 below). The vacc-pAg were compared in couples (group 1 vs. group 2). Thereby, both native and optimized versions of a single peptide were compared in each wave.
The animals were immunized on day 0 (d0) with a prime injection, and on d14 with a boost injection. Each mouse was injected s.c. at tail base with 100 μL of an oil-based emulsion that contained:
100 μg of vacc-pAg (25 μL of 4 mg/mL stock per mouse);
150 μg of h-pAg (15 μL of 10 mg/mL stock per mouse);
10 μL of PBS to reach a total volume of 50 μL (per mouse);
Incomplete Freund's Adjuvant (IFA) added at 1:1 (v:v) ratio (50 μL per mouse).
Seven days after the boost injection (i.e., on d21), the animals were euthanized and the spleen was harvested. Splenocytes were prepared by mechanical disruption of the organ followed by 70 μm-filtering and Ficoll density gradient purification.
The splenocytes were immediately used in an ELISPOT-IFNγ assay (Table 15). […]
(§2) Spots were counted on a Grand ImmunoSpot® S6 Ultimate UV Image Analyzer interfaced to the ImmunoSpot 5.4 software (CTL-Europe). […]

[3] = system: splenocytes (IFNγ secretion); test: ELISPOT-IFNγ on splenocytes of HHD DR3 and HHD DR1 mice vaccinated with IL13RA2-BL (Example 15); assay type: in vivo, mouse
Description: Mice were immunized with a specific vaccination peptide (vacc-pAg) combined to a common helper peptide (h-pAg).
The peptides were provided as follows: • vacc-pAg: IL13RA2-BL; all produced and provided at a 4 mg/ml (4 mM) concentration; • h-pAg: HHD-DR3 peptide (SEQ ID NO: 32); for immunization of β/A2/DR3 HHDDR3 mice provided at a 4 mg/ml (4 mM) concentration • h-pAg: UCP2 peptide (SEQ ID NO: 159); for immunization of β/A2/DR1 HHDDR1 mice provided at a 4 mg/ml (4 mM) concentration
The animals were immunized on day 0 (d0) with a prime injection, and on d14 with a boost injection. Each mouse was injected s.c. at tail base with 100 μL of an oil-based emulsion that contained: • 100 μg of vacc-pAg (25 μL of 4 mg/mL stock per mouse); • 150 μg of h-pAg (15 μL of 10 mg/mL stock per mouse); • 10 μL of PBS to reach a total volume of 50 μL (per mouse); • Incomplete Freund's Adjuvant (IFA) added at 1:1 (v:v) ratio (50 μL per mouse).
Seven days after the boost injection (i.e. on d21), the animals were euthanized and the spleen was harvested. Splenocytes were prepared by mechanical disruption of the organ followed by 70 μm-filtering and Ficoll density gradient purification.
The splenocytes were immediately used in an ELISPOT-IFNγ assay (Table 21). […]
as §2

Concentration inducing 20% of expression of the HLA-A*0201 [1] [µM]	Mean fluorescence intensity ([1]; peptide at 3 μM)	Mean fluorescence intensity ([1]; peptide at 25 μM)	Mean fluorescence intensity ([1]; peptide at 100 μM)	Sequence	Binding to HLA-A*0201 (in words) [1]	T cell responses in the ELISPOT-IFNγ assay (in words) ([2]; β/A2/DR3 mice vaccinated with FOXM1-B2 (100 μg) + HHD-DR3 + IFA, d0 and d14)	Activation of T cells after ex vivo re-stimulation with human FOXM1-H2 (in words) ([2]; β/A2/DR3 mice vaccinated with FOXM1-B2, re-stimulation FOXM1-H2 10 μM)	% of maximum HIV pol 589-597 binding activity ([1]; peptide at 6.25 μM) [%]	% of maximum HIV pol 589-597 binding activity ([1]; peptide at 25 μM) [%]	% of maximum HIV pol 589-597 binding activity ([1]; peptide at 100 μM) [%]	Response of splenocytes, ELISPOT-IFNγ (in words) ([3]; HHD DR3 and HHD DR1 mice immunized with IL13RA2-BL + helper + IFA, stimulation with IL13RA2-BL)	Immune response against human peptide IL13RA2-HL (in words) ([3]; mice immunized with IL13RA2-BL, stimulation with human peptide)
6.7	12.7	98.2	105	LMDLSTTEV (Sequence variant) [SEQ ID NO: 75]	bind	induced strong T cell responses	efficient activation of T cells could be observed	–	–	–	–	–
–	–	–	–	FLPFGFILPV (Sequence variant) [SEQ ID NO: 139]	strong binding affinity	–	–	43	96	69	strong response of splenocytes	effective immune response
